This note sets out measurements from the supplement of paper PMC10567573.

± gives the standard deviation.

A short description of this series: protein stability index of a GFP-peptide fusion (GPS, HEK-293T) (PSI 1-6); higher = more stable. The conditions noted are these: c terminus: a fixed tail appended.
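Note: 24-mer peptide tiles fused after GFP, lentivirally expressed, FACS-sorted into six equal bins by GFP/DsRed ratio, decoded by Illumina sequencing, PSI is the read-weighted mean bin number.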

As to TRTAEPAESSVPPVTSIGIDNLGL [SLC35F2], the protein stability index runs as follows: (treatment: DMSO) 4.48 ± 0.27; (treatment: MLN4924 1 uM, 8 h) 4.49 ± 0.11.
Take TSDASFHPAFLPQRQAIKGAFYRR [KCNG1]: the protein stability index (treatment: DMSO) worked out at 3.62 ± 0.097 and the protein stability index (treatment: MLN4924 1 uM, 8 h) was determined as 3.66 ± 0.13.
With TSFCGQQFILERGEYPRWDAWSGS [CRYBA1], the protein stability index is 2.77 ± 0.68 (treatment: DMSO) and 2.65 ± 0.39 (treatment: MLN4924 1 uM, 8 h).
On to TSFSNYYRTWNVVVHDWLYSYVYQ [SOAT2], for which the protein stability index (treatment: DMSO) came to 3.11 ± 0.27 and the protein stability index (treatment: MLN4924 1 uM, 8 h) was determined as 3.01 ± 0.4.
The corresponding values for TSGKLLLEADELCDDGGDGRGAVV [ZBTB22] are 5.36 ± 0.29 and 5.31 ± 0.1.
As for TSIEEGYERSFIHKIKHKHILAKN [IQUB], the protein stability index was found to be 3.14 ± 0.16 (treatment: DMSO) and 3.29 ± 0.55 (treatment: MLN4924 1 uM, 8 h).
TSSAKVDMTFEEEAQLLQLKVKCL [FKBP8]: the protein stability index by setting is: (treatment: DMSO) 3.48 ± 0.28; (treatment: MLN4924 1 uM, 8 h) 3.54 ± 0.33.
The matching figures for TTVGYGDMKPITVGGKIVGSLCAI [KCNA4]: 2.23 ± 0.47 and 2.4 ± 0.27.
The matching figures for TVDKCFGRKKYDIDPRNGIPKLTP [SPATS1]: 3.45 ± 0.36 and 3.51 ± 0.23.
The matching figures for TVGGEERVSRKPTAAMRCMCPLYD [GAN]: 3.3 ± 0.21 and 3.46 ± 0.49.
As for TVVREVIFLGFSSLARLQQLLFVI [OR10K2], the protein stability index is 3.15 ± 0.73 (treatment: DMSO) and 2.87 ± 0.55 (treatment: MLN4924 1 uM, 8 h).
The corresponding values for TWKKNRRQLAYSTVGTPDYIAPEV [STK38L] are 3.39 ± 0.2 and 3.48 ± 0.4.
The matching figures for VAPPEDKESESEAKVDGETASDSE [CDS2]: 5.55 ± 0.23 and 5.61 ± 0.18.
The corresponding values for VAQLFNCMVGLLLIALLTWGYIRY [ATL3] are 3.11 ± 0.58 and 2.77 ± 0.42.
Regarding VCTISSTGPLQPQPKKPEDEPQET [PKD2L1], the protein stability index reads like this: (treatment: DMSO) 5.39 ± 0.21; (treatment: MLN4924 1 uM, 8 h) 5.48 ± 0.16.
The corresponding values for VDRCGASVEAGGSVHFDGETIEGA [FEM1A] are 4.87 ± 0.24 and 4.92 ± 0.18.
The corresponding values for VDVQTELYLEEIADRIIEVDMECQ [RSPH3] are 2.75 ± 0.32 and 3.12 ± 0.69.
The matching figures for VENRVVEEAKGLLDKVKDGGYRPA [ZBED1]: 4.82 ± 0.13 and 4.94 ± 0.094.
On to VFFFIFFVQDVLFVLQAIGIPGWG [SCAMP3], for which the protein stability index worked out at 3.44 ± 0.83 (treatment: DMSO) and 2.93 ± 0.71 (treatment: MLN4924 1 uM, 8 h).
For the sequence VFITILIIALIALSVGQYNCPGQY [CD69], the protein stability index turned out to be 2.6 ± 0.38 (treatment: DMSO) and 2.61 ± 0.57 (treatment: MLN4924 1 uM, 8 h).
The matching figures for VFNLFRTMGLRHLPVVNAVGEIVG [CLCN6]: 2.45 ± 0.21 and 2.29 ± 0.18.
For the sequence VFRIFKLSRHSKGLQILGHTLRAS [KCNA4], the protein stability index is, setting by setting: (treatment: DMSO) 2.39 ± 1; (treatment: MLN4924 1 uM, 8 h) 2.6 ± 0.68.
The corresponding values for VGYTALVGSDAESWGWDLGRSRLY [SPSB4] are 2.21 ± 0.076 and 2.56 ± 0.48.
The corresponding values for VHLVIWLLLVAKMSVGHLRLLSHD [JAGN1] are 3.39 ± 0.5 and 3.36 ± 0.63.
As for VIDRKVYNISEFTRRHPGGSRVIS [FADS1], the protein stability index by setting is: (treatment: DMSO) 2.66 ± 0.26; (treatment: MLN4924 1 uM, 8 h) 3.07 ± 0.062.
The matching figures for VKAEPFIKWLKEAEEESSGGEEED [EIF5]: 5.3 ± 0.28 and 5.4 ± 0.15.
The corresponding values for VKRRRTASLSNQECQLYPRRSQQQ [SNURF] are 4.43 ± 0.18 and 4.45 ± 0.19.
The corresponding values for VKSNTEQMREAFATAFSKLKPESS [ZBED1] are 4.34 ± 0.24 and 4.27 ± 0.18.
Regarding VKTWFQNQRMKSKRWQKNNWPKNS [NANOGP8], the protein stability index turned out to be 2.21 ± 0.57 (treatment: DMSO) and 2.42 ± 0.38 (treatment: MLN4924 1 uM, 8 h).
The corresponding values for VKVTFNKQDSLVILTIMATLKIRN [TMEM106C] are 2.92 ± 0.53 and 2.89 ± 0.32.
The corresponding values for VLSLKEGAREEDLDAVEAQIGCKL [FBXO3] are 5.24 ± 0.49 and 4.6 ± 0.25.
With VLSNMEKLFCIPVHGIRSVGTAAV [IMPA1], the protein stability index was 2.09 ± 0.47 (treatment: DMSO) and 2.12 ± 0.059 (treatment: MLN4924 1 uM, 8 h).
Take VLSRLQDAAVVRPGFLSTAEEETL [ALKBH7]: the protein stability index turned out to be 4.21 ± 0.17 (treatment: DMSO) and 4.12 ± 0.55 (treatment: MLN4924 1 uM, 8 h).
The matching figures for VLTAVDGGTPARSGTTLISVIVLD [PCDHGC5]: 2.34 ± 0.47 and 2.26 ± 0.22.
Take VLVLAVQVHAWQLYYSKKLLDSWF [JAGN1]: the protein stability index by setting is: (treatment: DMSO) 3.23 ± 0.49; (treatment: MLN4924 1 uM, 8 h) 3.06 ± 0.91.
The corresponding values for VLYTDKTYAMGHLIQRKKVHVFGD [TNFSF13B] are 2.28 ± 0.14 and 2.51 ± 0.41.
